6 substances from US20210024620A1 can be followed below.

Assay [1] has as its target biotinylated human FcRn (human) (UniProt P55899). The experiment in a line: Biacore, pH 7.4, steady state response. A general note: In SPR one partner is held on a chip, and binding of the other changes the refractive index at the surface.
Assay [2] has as its target biotinylated human FcRn (p51 subunit residues 24-297 with C-terminal Avi-tag; beta2-microglobulin residues 21-119) (human) (UniProt P55899). The assay is described as follows: Biacore SPR, pH 7.4, steady state.
For assay [3] the target is unchanged. The experiment in a line: Biacore; affinity at pH 6.0 (M^-1) over steady state RU at pH 7.4.
Assay [4] has as its target biotinylated human FcRn (human) (UniProt P55899). The experiment in a line: Biacore SPR, pH 7.4.
The target is the same in assay [5]. The experiment in a line: Biacore SPR, pH 6.0.
For assay [6], the target named is biotinylated human FcRn (p51 subunit residues 24-297 with C-terminal Avi-tag; beta2-microglobulin residues 21-119) (human) (UniProt P55899). The experiment in a line: Biacore SPR, pH 6.0.
Chain of biotinylated human FcRn (p51 subunit residues 24-297 with C-terminal Avi-tag; beta2-microglobulin residues 21-119) (human) (P55899 24-297 limits assumed, chain 1 of 2): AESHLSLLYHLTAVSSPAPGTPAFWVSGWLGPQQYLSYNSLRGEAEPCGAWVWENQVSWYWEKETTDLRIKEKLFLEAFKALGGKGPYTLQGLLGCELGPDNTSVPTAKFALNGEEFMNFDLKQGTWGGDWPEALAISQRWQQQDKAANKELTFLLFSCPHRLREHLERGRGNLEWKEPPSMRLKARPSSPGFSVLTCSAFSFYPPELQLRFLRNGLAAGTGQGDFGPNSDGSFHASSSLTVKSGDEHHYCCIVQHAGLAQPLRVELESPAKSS
Chain of biotinylated human FcRn (p51 subunit residues 24-297 with C-terminal Avi-tag; beta2-microglobulin residues 21-119) (human) (P61769 21-119 limits assumed, chain 2 of 2, further chain): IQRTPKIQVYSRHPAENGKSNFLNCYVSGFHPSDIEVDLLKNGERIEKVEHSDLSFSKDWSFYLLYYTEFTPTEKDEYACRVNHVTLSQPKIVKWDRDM
In assay [7] the target is biotinylated human FcRn (human) (UniProt P55899). The experiment in a line: Biacore, pH 6.0, apparent KD.
Chain of biotinylated human FcRn (human) (P55899 24-297 limits assumed, chain 1 of 2): as the sequence (P55899 24-297 limits assumed, chain 1 of 2) above
Chain of biotinylated human FcRn (human) (P61769 21-119 limits assumed, chain 2 of 2, further chain): as the sequence (P61769 21-119 limits assumed, chain 2 of 2, further chain) above
Assay [8] shares this target. The assay is described as follows: Biacore, pH 6.0.
For assay [9] the target is unchanged. The experiment in a line: Biacore SPR, pH 7.4, 1000 nM antibody.
Assay [10] deals with biotinylated human FcRn (p51 subunit residues 24-297 with C-terminal Avi-tag; beta2-microglobulin residues 21-119) (human) (UniProt P55899). The experiment in a line: Biacore; inverse ratio (RU at pH 7.4 over affinity at pH 6.0).
For assay [11], the target named is FcRn immobilised on the FcRn affinity column (biotinylated cynoFcRn in one experiment, biotinylated hFcRn in another). The experiment in a line: FcRn affinity chromatography, linear pH gradient; species of the immobilised FcRn not given.
For assay [12], the target named is Human CD16a (FcγRIIIa V158) with C-terminal HPC4 tag (human) (UniProt P08637). The experiment in a line: Biacore, FcγRIIIa V158 captured, steady-state fit, apparent KD.
Chain of Human CD16a (FcγRIIIa V158) with C-terminal HPC4 tag (human) (P08637 17-208 F176V): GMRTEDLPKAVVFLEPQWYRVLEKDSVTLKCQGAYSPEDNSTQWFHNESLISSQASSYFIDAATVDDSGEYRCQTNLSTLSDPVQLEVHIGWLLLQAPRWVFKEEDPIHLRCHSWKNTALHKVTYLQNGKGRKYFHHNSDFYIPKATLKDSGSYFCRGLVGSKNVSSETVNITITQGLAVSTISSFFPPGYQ
The target in assay [13] is rat FcRn (rat) (UniProt P13599). The experiment in a line: Biacore, pH 7.4, steady state response.
Chain of rat FcRn (rat) (P13599 23-298 limits assumed, chain 1 of 2): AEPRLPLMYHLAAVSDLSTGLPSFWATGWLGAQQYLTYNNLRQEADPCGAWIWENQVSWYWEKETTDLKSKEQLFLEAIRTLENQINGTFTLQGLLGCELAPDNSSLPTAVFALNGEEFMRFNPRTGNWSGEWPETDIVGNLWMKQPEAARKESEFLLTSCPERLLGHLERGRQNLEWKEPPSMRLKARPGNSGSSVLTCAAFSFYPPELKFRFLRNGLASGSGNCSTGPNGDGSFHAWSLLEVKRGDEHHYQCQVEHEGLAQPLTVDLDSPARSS
Chain of rat FcRn (rat) (P07151 21-119 limits assumed, chain 2 of 2, further chain): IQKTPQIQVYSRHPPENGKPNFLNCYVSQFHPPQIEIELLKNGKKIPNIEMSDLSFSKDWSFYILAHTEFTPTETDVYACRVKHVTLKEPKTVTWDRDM
Assay [14] has as its target biotinylated human FcRn (human) (UniProt P55899). The experiment in a line: Biacore SPR, pH 7.4. This is another data set of the same source.
In assay [15] the target is rat FcRn (rat) (UniProt P13599). The assay is described as follows: Biacore SPR, pH 7.4.
Assay [16] shares this target. The assay is described as follows: Octet BLI, pH 6.0. A general note: In BLI a coated tip is dipped into the sample, and binding shifts an interference pattern.
Assay [17] addresses biotinylated human FcRn (human) (UniProt P55899). The assay is described as follows: Biacore SPR, pH 6.0. The source holds these as a separate data set.
Assay [18] deals with rat FcRn (rat) (UniProt P13599). The experiment in a line: Biacore SPR, pH 6.0.
For assay [19] the target is unchanged. The experiment in a line: Biacore, pH 6.0, apparent KD.
The target is the same in assay [20]. The experiment in a line: Biacore, pH 6.0.
Assay [21] has the same target. The assay is described as follows: Biacore SPR, pH 7.4, 1000 nM antibody.
Assay [22] has as its target Human CD16a (FcγRIIIa V158) with C-terminal HPC4 tag (human) (UniProt P08637). The experiment in a line: Biacore SPR, FcγRIIIa-V158 captured, pH 7.4.
Assay [23] has the same target. The experiment in a line: Biacore SPR, FcγRIIIa.
Assay [24] addresses rat FcRn (rat) (UniProt P13599). The experiment in a line: Octet BLI screen, pH 6.0.
The target is the same in assay [25]. The assay is described as follows: Biacore SPR, pH 6.0. The source holds these as a separate data set.

In the case of “mAb1 AAA (T307A/E380A/N434A) (antibody; other documents disagree on this pair)”, the Steady State RU in [1] was 13.9 RU; in assay [4], 13.1 RU; in [9], 13.9 RU. Further, the Steady State Binding, pH 7.4 (RU) in [2] was determined as 13.9 RU. Also, the Ratio (pH 6.0/pH 7.4) was determined as 40400 in [3] and 2.47e-05 in assay [10]. The Kd in [5] and in assay [7] was 1780 nM in each case. Also, the results for the koff in assay [5] and in assay [8] were 0.144 s⁻¹ and 0.14 s⁻¹, respectively. For the same substance, the association rate constant (kon) – broadly, the rate constant with which the complex forms – in assay [5] was found to be 83700 M⁻¹ s⁻¹; in assay [8] it was 84000 M⁻¹ s⁻¹. In [6], this substance yielded a Ka of 562000 M⁻¹.

In [11], mAb1 LS (M428L/N434S) (antibody) displayed a FcRn affinity column elution pH of 8.29 pH. The Kd stood at 369 nM in assay [12]; 272 nM in [17]; 74 nM in the assay with rat FcRn (rat) [18]; 272 nM in assay [7]; 74 nM in the assay with rat FcRn (rat) [19]. Also, the Steady State RU is 18.3 RU in [1]; 24.8 RU with rat FcRn (rat) [13]; 18.3 RU in [14]; 24.8 RU with rat FcRn (rat) [15]; 18.5 RU in assay [4]; 18.3 RU in [9]. Besides, the Steady State RU in the assay with rat FcRn (rat) [21] stood at 24.8 RU. The Steady State Binding, pH 7.4 (RU) in assay [2] was determined as 18.3 RU. The Ratio (pH 6.0/pH 7.4) in assay [3] stood at 201000; in [10], 4.97e-06. For the same substance, the dissociation rate constant (koff) (in general, a measure of how fast the partners let go of each other) stood at 0.00338 s⁻¹ in the assay with rat FcRn (rat) [16]; 0.05 s⁻¹ in assay [17]; 0.052 s⁻¹ in assay [5]; 0.00658 s⁻¹ with rat FcRn (rat) [18]; 0.05 s⁻¹ in assay [8]; 0.0066 s⁻¹ in the assay with rat FcRn (rat) [20]. Further, the kon was 190000 M⁻¹ s⁻¹ in assay [17]; 193000 M⁻¹ s⁻¹ in assay [5]; 90800 M⁻¹ s⁻¹ with rat FcRn (rat) [18]; 193000 M⁻¹ s⁻¹ in assay [8]; 91000 M⁻¹ s⁻¹ in the assay with rat FcRn (rat) [20]. For the same substance, the Ka in assay [6] was 3.68e+06 M⁻¹. Moreover, the FcγRIIIa V158 affinity fold change relative to WT in [22] is 1.04 fold.

mAb1 N434F (antibody): the Steady State RU with rat FcRn (rat) [15] was determined as 61.5 RU; in the assay with rat FcRn (rat) [21], 54.9 RU. In addition, the Kd with rat FcRn (rat) [18] and with rat FcRn (rat) [19] was 26 nM throughout. The enhancement of FcγRIIIa binding vs WT in [23] is 16 to 40%.

In turn, mAb1 N434Y (antibody) returned a FcRn affinity column elution pH in assay [11] of 8.46 pH. The Steady State RU is 66 RU with rat FcRn (rat) [15] and 47 RU with rat FcRn (rat) [21]. The koff was 0.00133 s⁻¹ with rat FcRn (rat) [16], 0.00346 s⁻¹ with rat FcRn (rat) [18] and 0.0035 s⁻¹ with rat FcRn (rat) [20]. Further, the Kd with rat FcRn (rat) [18] and with rat FcRn (rat) [19] was 23 nM throughout. Besides, the kon in the assay with rat FcRn (rat) [18] and in the assay with rat FcRn (rat) [20] was 145000 M⁻¹ s⁻¹ throughout. In the assay with rat FcRn (rat) [24], the fold slower off-rate vs WT was above 2 fold. The enhancement of FcγRIIIa binding vs WT in [23] lay within 16 to 40%. For the same substance, the FcγRIIIa V158 affinity fold change relative to WT in assay [22] worked out at 1.41 fold.

Substance mAb1 MDWN (T256D/T307W) (antibody) showed a FcRn affinity column elution pH in [11] of 7.92 pH. The Kd was found to be 512 nM in assay [12]; 8.2 nM with rat FcRn (rat) [25]; 169 nM in assay [5]; 8.24 nM with rat FcRn (rat) [18]; 169 nM in assay [7]; 8.2 nM with rat FcRn (rat) [19]. Moreover, the Steady State RU is 12.2 RU in [1], 42.1 RU with rat FcRn (rat) [13], 12.2 RU in assay [14] and 42.1 RU in the assay with rat FcRn (rat) [15]. This substance returned a Steady State Binding, pH 7.4 (RU) in assay [2] of 12.2 RU. The Ratio (pH 6.0/pH 7.4) in assay [3] was determined as 485000. In addition, the koff worked out at 0.089 s⁻¹ in assay [17]; 0.0892 s⁻¹ in assay [5]; 0.00129 s⁻¹ in the assay with rat FcRn (rat) [18]; 0.089 s⁻¹ in assay [8]; 0.0013 s⁻¹ in the assay with rat FcRn (rat) [20]. In addition, the kon came to 530000 M⁻¹ s⁻¹ in [17]; 529000 M⁻¹ s⁻¹ in [5]; 157000 M⁻¹ s⁻¹ in the assay with rat FcRn (rat) [18]; 530000 M⁻¹ s⁻¹ in assay [8]; 16000 M⁻¹ s⁻¹ with rat FcRn (rat) [20]. Moreover, in assay [6], the Ka stood at 5.92e+06 M⁻¹. In addition, the FcγRIIIa V158 affinity fold change relative to WT in [22] was 0.89 fold. For the same substance, the Ratio (pH 7.4/pH 6.0) in assay [10] was 2.06e-06.

In turn, mAb1 YTE (M252Y/S254T/T256E) (antibody) came in with a FcRn affinity column elution pH in [11] of 8.14 pH. Also, the Kd in assay [12] was found to be 1040 nM; in [17], 342 nM; in the assay with rat FcRn (rat) [18], 18 nM; in assay [7] it was 342 nM; in the assay with rat FcRn (rat) [19], 18 nM. Also, the Steady State RU stood at 13.2 RU in assay [1]; 53.9 RU with rat FcRn (rat) [13]; 13.2 RU in [14]; 53.9 RU with rat FcRn (rat) [15]; 13.1 RU in assay [4]; 13.2 RU in assay [9]. Further, in the assay with rat FcRn (rat) [21], the Steady State RU stood at 53.9 RU. In assay [2], this substance yielded a Steady State Binding, pH 7.4 (RU) of 13.2 RU. Moreover, the Ratio (pH 6.0/pH 7.4) in assay [3] turned out to be 221000. Also, the off-rate (koff) with rat FcRn (rat) [16] turned out to be 0.00066 s⁻¹; in assay [17], 0.047 s⁻¹; in assay [5] it was 0.045 s⁻¹; with rat FcRn (rat) [18], 0.00121 s⁻¹; in [8], 0.05 s⁻¹; with rat FcRn (rat) [20] it was 0.0012 s⁻¹. Also, the kon in assay [17] turned out to be 140000 M⁻¹ s⁻¹; in [5], 143000 M⁻¹ s⁻¹; in the assay with rat FcRn (rat) [18] it was 65200 M⁻¹ s⁻¹; in assay [8], 143000 M⁻¹ s⁻¹; in the assay with rat FcRn (rat) [20] it was 65000 M⁻¹ s⁻¹. The substance also returned a Ka in assay [6] of 2.92e+06 M⁻¹. The same substance had a reduction in binding response vs wildtype in assay [23] of 50%. Further, in assay [22], the FcγRIIIa V158 affinity fold change relative to WT turned out to be 0.52 fold.
